From patent US20190161555A1 (ALLIGATOR BIOSCIENCE, published 2019)

Key:
cynomolgus 5T4 [1] = target: T1, cynomolgus 5T4 (Macaca mulatta (cynomolgus)); assay: flow cytometry, CHO cells with cynomolgus 5T4 against CHO cells with human 5T4
T1 construct: whole, on cells; stably transfected CHO cells; also called cyno5T4; cy5T4
Procedure: (§1) The potency of 5T4 antibodies in binding to cynomolgus 5T4 was determined by flow cytometry. CHO cells were stably transfected with […] (cynomolgus) 5T4. […] Samples were analysed either on a FACSCalibur or a FACSverse (BD Biosciences, Heidelberg, Germany) and mean fluorescence intensity (MFI) determined. […] To compare the EC50 values between human and cynomolgus 5T4, the cy5T4/hu5T4 ratio was calculated from the experiment with the full dose-response.

[2] = target: T2, human/mouse 5T4 chimera E7; assay: flow cytometry, cells with 5T4 chimera; % positive cells over that of the best clone
T2 construct: on stably transfected CHO cells
Procedure: (§2) Epitope mapping was performed by investigation of loss of binding by the antibodies using a panel of human/mouse chimeric 5T4 constructs by flow cytometry. […] Two strategies were used for the epitope mapping as illustrated in FIG. 5. In one approach, seven human/mouse 5T4 chimeras were constructed based on dividing 5T4 into seven different domains (FIG. 5). By replacing each domain with the corresponding mouse sequence seven human/mouse 7 5T4 human/mouse chimeras were generated. The chimeras were generated using the human protein 5T4 sequence NP_006661.1 (reference mRNA sequence NM_006670.4) and the corresponding mouse sequence NP_035757.2 (reference mRNA sequence NM_011627.4). The human/mouse chimeric DNA constructs, as well as human and mouse wild-type 5T4, were cloned into pcDNA3.1 expression vectors. […] In the other approach, cells transfected with a human/mouse 5T4 chimera (Woods et al., 2002) was used, in which mouse sequence in amino acid 173-420 replaced the human sequence (FIG. 5). As controls human 5T4 and mouse 5T4-transfected cells were used.
(§3) For flow cytometric analysis, cells were stained with different 5T4 antibodies diluted in FACS buffer (PBS, 0.5% BSA). […] Samples were analysed by FACSverse (BD Biosciences, Heidelberg, Germany) and % positive cells were determined. To compensate for variations in % 5T4 positive cells in the various transfected populations, binding levels were normalized within each chimera by dividing % positive cells for each clone with % positive cells for the clones resulting in the highest % positive cells (% pos cellsclonX/% positive cellsₘₐₓ). A normalized value≤0.75 was defined as mAb binding being dependent on the replaced region, whereas a normalized value≤0.25 was defined as complete dependence.

[3] = target: T3, human/mouse 5T4 chimera E5; assay: as above
T3 construct: on stably transfected CHO cells
Procedure: as §2, §3

[4] = target: T4, human/mouse 5T4 chimera E1; assay: as above
T4 construct: on stably transfected CHO cells
Procedure: as §2, §3

[5] = target: T5, human/mouse 5T4 chimera E3; assay: as above
T5 construct: on stably transfected CHO cells
Procedure: as §2, §3

[6] = target: T6, human/mouse 5T4 chimera E6; assay: as above
T6 construct: on stably transfected CHO cells
Procedure: as §2, §3

[7] = target: T7, human/mouse 5T4 chimera E2; assay: as above
T7 construct: on stably transfected CHO cells
Procedure: as §2, §3

[8] = target: T8, human/mouse 5T4 chimera E4; assay: as above
T8 construct: on stably transfected CHO cells
Procedure: as §2, §3

[9] = target: T9, human 5T4 on transfected cells (human, UniProt Q13641 32-420); assay: flow cytometry, 5T4-transfected B16 cells
T9 construct: whole, on cells; for B16 and A9 cells only a 5T4 construct is named; also called 5T4-transfected B16 cells; B16-5T4
T9 sequence (looked up): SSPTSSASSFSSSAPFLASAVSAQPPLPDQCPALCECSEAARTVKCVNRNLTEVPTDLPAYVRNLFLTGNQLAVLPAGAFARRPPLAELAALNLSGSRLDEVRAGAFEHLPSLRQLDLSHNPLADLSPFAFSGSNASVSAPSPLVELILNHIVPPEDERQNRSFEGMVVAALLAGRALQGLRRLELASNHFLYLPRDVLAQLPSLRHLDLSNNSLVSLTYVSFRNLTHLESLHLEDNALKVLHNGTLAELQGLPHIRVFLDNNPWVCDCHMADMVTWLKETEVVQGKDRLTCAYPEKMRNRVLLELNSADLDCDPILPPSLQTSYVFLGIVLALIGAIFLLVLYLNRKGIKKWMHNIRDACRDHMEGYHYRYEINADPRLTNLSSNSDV
Procedure: (§4) Analysis of 5T4 mAb binding with flow cytometry was performed using 5T4-transfected cell lines and as negative control, mock transfected cells. Three different transfected cell lines used were used for this study; B16, A9 and CHO, transfected either with a 5T4 construct or with an empty vector control construct. Cells were stained with 5T4 antibodies diluted in FACS buffer (PBS, 0.5% BSA and 0.02% NaN₃). […] Samples were analysed either on a FACSCalibur or a FACSverse (BD Biosciences, Heidelberg, Germany) and mean fluorescence intensity (MFI) determined.

5T4-Fc = target: T10, 5T4-Fc (human, UniProt Q13641 32-355, limits assumed); assay: ELISA, plates coated with 5T4-Fc
T10 construct: obtained from Peter L. Stern, University of Manchester; also called h5T4-Fc; recombinant 5T4
T10 sequence (looked up): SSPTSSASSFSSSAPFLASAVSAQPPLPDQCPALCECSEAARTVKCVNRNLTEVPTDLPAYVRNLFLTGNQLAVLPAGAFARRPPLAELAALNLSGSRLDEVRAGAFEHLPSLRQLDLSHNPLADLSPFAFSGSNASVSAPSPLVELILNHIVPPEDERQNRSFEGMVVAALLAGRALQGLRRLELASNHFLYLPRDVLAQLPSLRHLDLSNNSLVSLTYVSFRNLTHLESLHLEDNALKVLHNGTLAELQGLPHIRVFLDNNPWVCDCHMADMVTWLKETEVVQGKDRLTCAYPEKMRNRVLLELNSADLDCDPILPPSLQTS
Procedure: ELISA was performed using a standard protocol. Plates (#655074, Greiner Bio-One GmbH, Germany) were pre-coated with 0.5 μg/ml 5T4-Fc (obtained from Peter L. Stern, University of Manchester) overnight. 5T4 antibodies were diluted from 6 to 1.5×10⁻³ μg/ml in 1:4 dilutions and added in duplicates of 50 μl to each well. Binding was detected with rabbit anti-h kappa L-chain-HRP (P0129, Dako Denmark) and the ELISA was developed with SuperSignal ELISA PICO Chemiluminescent substrate (Thermo Scientific Pierce, Rockford, Ill. USA) for 2-10 minutes and read in an automated microplate based multi-detection reader (FLUOstar OPTIMA, Netherlands).

[10] = target: T9, human 5T4 on transfected cells; assay: flow cytometry, 5T4-transfected A9 cells
Procedure: as §4

cynomolgus 5T4 [11] = target: T1, cynomolgus 5T4; assay: flow cytometry, CHO cells transfected with cynomolgus 5T4
Procedure: as §1

mouse 5T4 = target: T11, mouse 5T4 (mouse, UniProt Q9Z0L0 32-426); assay: flow cytometry, mouse 5T4-transfected cells
T11 construct: whole, on cells; also called murine 5T4
T11 sequence (looked up): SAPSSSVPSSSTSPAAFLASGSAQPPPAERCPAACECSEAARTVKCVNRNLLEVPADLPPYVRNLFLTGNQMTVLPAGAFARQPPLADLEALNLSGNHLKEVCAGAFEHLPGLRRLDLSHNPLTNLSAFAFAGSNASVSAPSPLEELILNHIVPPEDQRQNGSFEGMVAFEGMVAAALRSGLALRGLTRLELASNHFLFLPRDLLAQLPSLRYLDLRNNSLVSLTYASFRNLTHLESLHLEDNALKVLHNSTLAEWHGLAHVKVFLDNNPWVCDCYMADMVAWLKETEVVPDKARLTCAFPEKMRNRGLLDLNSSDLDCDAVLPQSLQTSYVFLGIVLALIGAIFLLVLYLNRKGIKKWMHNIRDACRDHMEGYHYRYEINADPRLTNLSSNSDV

[12] = target: T12, 5T4 (immobilised for SPR) (UniProt Q13641 32-355, limits assumed, biotinylated on the MASS-1 platform); assay: SPR Biacore 3000, 5T4 amine-coupled, mAb injected, 1:1 Langmuir
T12 construct: also called biotinylated 5T4
T12 sequence (looked up): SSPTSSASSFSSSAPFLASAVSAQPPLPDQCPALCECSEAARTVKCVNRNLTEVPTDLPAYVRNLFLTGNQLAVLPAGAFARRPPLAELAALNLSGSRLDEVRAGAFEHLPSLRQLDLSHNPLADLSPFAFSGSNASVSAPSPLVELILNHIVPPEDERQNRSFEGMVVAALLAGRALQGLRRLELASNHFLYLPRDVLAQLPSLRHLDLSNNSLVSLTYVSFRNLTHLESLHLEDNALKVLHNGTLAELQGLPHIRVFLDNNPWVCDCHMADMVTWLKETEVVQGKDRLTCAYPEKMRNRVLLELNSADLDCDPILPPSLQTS
Procedure: Binding kinetics of the 5T4-specific mAbs have been studied using two different SPR-based platforms, the Biacore 3000 (GE Healthcare) and the MASS-1 platform (Sierra Sensors). Briefly, 5T4 was captured at the sensor chip surface either via direct amine coupling (Biacore platform) or using a streptavidin coated chip and biotinylated 5T4 (MASS-1 platform). The different 5T4-specific mAbs were then injected over the chip in increasing concentrations and the association and dissociation rates studied in real time. A 1:1 Langmuir model was used for curve fitting.

Ratio EC50cyno-5T4/h5T4 (cynomolgus 5T4 [1]): 140 ratio | normalized % positive cells [2]: 0.88 | normalized % positive cells [3]: 0.84 | normalized % positive cells [4]: 0.89 | normalized % positive cells [5]: 0.93 | normalized % positive cells [6]: 0.03 | normalized % positive cells [7]: 0.9 | normalized % positive cells [8]: 1 | EC50 [9]: 1.4 nM | Normalized EC50 (to 1628) [9]: 1.1 ratio to 1628 | EC50 (5T4-Fc): 0.56 nM | Normalized EC50 (to 1628) [10]: 0.4 ratio to 1628 | EC50 (cynomolgus 5T4 [11]): 30.7 nM | binding result (mouse 5T4): no binding | kon [12]: 450000 M⁻¹ s⁻¹
B1: 1212/1213 (antibody, IgG1, V domains shown)
VH: EVQLLESGGGLVQPGGSLRLSCAASGFTFSSYAMSWVRQAPGKGLEWVSYISSYGGYTSYADSVKGRFTISRDNSKNTLYLQMNSLRAEDTAVYYCARYHSGVLDYWGQGTLVTVSS
VL: DIQMTQSPSSLSASVGDRVTITCRASQSISSYLNWYQQKPGKAPKLLIYAASSLQSGVPSRFSGSGSGTDFTLTISSLQPEDFATYYCQQYYYHYLLTFGQGTKLEIK
notes: 5T4 antibody
